In the nanobody polyreactivity screen of Harvey et al. (2022):

Test: yeast display, Sf9 membrane polyspecificity reagent, FACS + sequencing; frameworks hold sequencing errors
How it was run: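 Polyreactivity labels are assigned by the sorting gate from which each nanobody was recovered. The gates were low and high (top ~1%), set on anti-HA fluorescence for expression and streptavidin fluorescence for reagent binding. Before sorting, galactose-induced (36–48 hours) yeast display cells were stained for 1 hour at 4 °C with 10% biotinylated, detergent-solubilized Sf9 membrane reagent.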

Row | Sequence | polyreactivity (PSR sort gate)
1 | QVQLVESGGGLVQAGGSLRLSCAASGRTFGYNAMGWYRQAPGKERELVATISSSTVSTSYADSVKGRFTISRDNAKNTVYLQMNSLKPEDPAVYYCNARSRVSPTERVPYDSWGQGTQVTVSS | low polyreactivity
2 | QVQLVESGGGLVQAGGSLRLSCAASGRTFGYNAMGWYRQAPGTERELVAAIRTIGDSTYYADSVKGRFTISRDNAKNTVYLQMNILKPVDTSVYYCAARKLRSRFDYWGQGTQVTVSS | high polyreactivity
3 | QVQLVESGGGLVQAGGSLRLSCAASGRTFGYNGMGWYRQAPGKERELVAAINSGGNTNYADSVKGRFTISRDNAKNTVYLQMNSLKPEDTSVYYCAKYGTLYEPVPNEYDYWGQGTQVTVSS | low polyreactivity
4 | QVQLVESGGGLVQAGGSLRLSCAASGRTFGYNTMGWYRQAPGKERELVARITWSGASTYYADSVKGRFTISRDNAKNTVYLQMNSLKPEDTAVYYCNTAYTVSWRSPYDYWGQGTQVTVSS | high polyreactivity
5 | QVQLVESGGGLVQAGGSLRLSCAASGRTFGYNTMGWYRQAPGKERELVATISRGGSTYYADSVKGRFTISRDNAKNTVYLQMNSLKPEDTAVYYCRYQSRFRYDYWGQGTQVTVSS | high polyreactivity
6 | QVQLVESGGGLVQAGGSLRLSCAASGRTFGYNTMGWYRQQPGKEREFVAAINYSGGSTYYADSVKGRFTISRDYGKNTVYLQMNSLKPEDTAVYYCNAKPRWYVPYDYWGQGTQVTVSS | high polyreactivity
7 | QVQLVESGGGLVQAGGSLRLSCAASGRTFGYNVMGWYRQAPGKARELVAGIRYSGGSTYYADSVKGRFTISRDNAKNTVYLQMNSLKPEDTAVYYCHAVDRNQYDYWGQGTQVTVSS | high polyreactivity
8 | QVQLVESGGGLVQAGGSLRLSCAASGRTFGYYAMGWYRKAPGKERELVAAISWRGTSTYYADSVKGRFTISRDNAKNTVYLQMNSLKPEDTAVYYCAVGRTVAHRFIAGDYWGQGTQVTVSS | high polyreactivity
9 | QVQLVESGGGLVQAGGSLRLSCAASGRTFGYYAMGWYRQAPGKEREFVAAISHSAGSTSYADSVKGRFTISRDNAKNTVYLQMNSLKPEDTAVYYCAADNPWYEMDYWGQGTQVTVSS | low polyreactivity
10 | QVQLVESGGGLVQAGGSLRLSCAASGRTFGYYAMGWYRQAPGKERELVAAISSSGGSTYYADSVKGRFTISRDNAKNTVYLQMNSLKPEDTAVYYCAARFANGGGYWGQGTQVTVSS | high polyreactivity
11 | QVQLVESGGGLVQAGGSLRLSCAASGRTFGYYAMGWYRQAPGKERELVATITFGGGSTYYADSVKGRFTISRDNAKNTVYLQMNSLKPEDTAVYYCAADTSVHSEVDYWGQGTQVTVSS | low polyreactivity
12 | QVQLVESGGGLVQAGGSLRLSCAASGRTFGYYAMGWYRQAPGQERELVAAISSGGGTYYADSVKGRFTISRDNAKNTVYVQMNSLKPEDTAVYYCAATGWVYWGQFDYWGEGTQVTVSS | low polyreactivity
13 | QVQLVESGGGLVQAGGSLRLSCAASGRTFGYYAMGWYRQATGKERELVAAISWSDSGTYYADSVKGRFTISRDNAKNTVYLQMNSLKPEDTAVYYCAKDEPYFVFRDTYDYWGQGTQVTVSS | high polyreactivity
14 | QVQLVESGGGLVQAGGSLRLSCAASGRTFGYYTMGWYRQAPGKERELVAAITSSGGSTYYADSVKGRFTISRDNAKNTVYLQMNSLKPEDTAVDYCAARAAYYFLYSAMYYWGQGTQVTVSS | high polyreactivity
15 | QVQLVESGGGLVQAGGSLRLSCAASGRTFGYYTMGWYRQAPGKERELVAAITWSGSTYYADSVKGRFTISRDNAKNTVYLQMNSLKPEDTAVYYCAVEIYYFVYGISYDYWGQGTQVTVSS | high polyreactivity
16 | QVQLVESGGGLVQAGGSLRLSCAASGRTFGYYTMGWYRQAPGKEWELVATITRGGTTKYADSVKGRFTISRDNAKNTVYLQMNSLKPEDTAVYYCNARERGSRQYTFDYWGQGTQVTVSS | high polyreactivity
17 | QVQLVESGGGLVQAGGSLRLSCAASGRTFGYYVMGWSRQAPGKETELVAAISNTDSTYYADSVKGRFTISRDNAKNTVYLQMNSLKPEDTAVYYCARDDAYSDFDYDYWGQGTQVTVSS | low polyreactivity
18 | QVQLVESGGGLVQAGGSLRLSCAASGRTFHIYAMGWYRQAPGKERELVAAIRGRSGSTYYADSVKGRFTISRDNAKNTVYLQLNSLKPEDTAVYYCAVGRYPYGSARYRFDYWGQGTQVTVSS | high polyreactivity
19 | QVQLVESGGGLVQAGGSLRLSCAASGRTFHNYAMGWYRQAPGKEREFVAVITGSGGRTYYADSVKGRFTISRDNAKNTVYLQMNSLKPEDTAVYYCNRVSRYYLYDYWGQGTQVTVSS | high polyreactivity
20 | QVQLVESGGGLVQAGGSLRLSCAASGRTFHPYAMGWYRQAPGKERELVAAITISTNYADSVKGRFTISRDNAKNTVSLQMNSVKPEDTAVYYCNADFVRPSWARGRNNGLYYWGQGTQVTVSS | low polyreactivity
21 | QVQLVESGGGLVQAGGSLRLSCAASGRTFHPYAMGWYRQAPGKERELVAAITSIGGSTFYADSVKGRFTISRDNAKNNVYLQLTSLKPEDTAVYFCNAESSYYYGTAAYEYWGQGTQVSVSS | low polyreactivity
22 | QVQLVESGGGLVQAGGSLRLSCAASGRTFHRYVMGWYRQAPGKERELVAAITRSGGITYYADSVKGRFTISRDNAKNTVYLQMNSLKPEDTAVYYCAKDDQTASGFDYWGQGTQVTVSS | low polyreactivity
23 | QVQLVESGGGLVQAGGSLRLSCAASGRTFHSYAMGWYRQAPGKERELVAAITSSGGSTYYADSVKGRFTISRDNAKNTVYLQMNSLKPEDTAVYYGNAYVRYGYGYYYWGQGTQVTVSS | high polyreactivity
24 | QVQLVESGGGLVQAGGSLRLSCAASGRTFHWYTLGWYRQAPGKEREFVAGINWSGARTYYADSVKGRFTISRDNAKNTVYLQMNSLKPEDTAVYYCNKRDRYRLYGYNYWGQGTQVTVSS | high polyreactivity
25 | QVQLVESGGGLVQAGGSLRLSCAASGRTFHYYTMGWYRQAPGKERELVAAISQSGGRTYYADSVKGRFTISRDNAKNTVYLQMNSLKPEDTAVYYCAAVSWRVISDYRIVGYDYWGQGTQVTVSS | low polyreactivity
26 | QVQLVESGGGLVQAGGSLRLSCAASGRTFIANAMGWYRQAPGKERELVAVITLNGGSTYYADSVKGRFTISRDNAKNTVYLQMNSLKPEDTAVYYCAAGRYYKLRATHGYWGQGTQVTVSS | low polyreactivity
27 | QVQLVESGGGLVQAGGSLRLSCAASGRTFIGYAMGWYRQAPGKERELVATISVSGGSTYYADSVKGRFTISRDNAKNTVYLQMNSLKPEDTAVYYCAKAYLRFYDGPYDYWGQGTQVTVSS | low polyreactivity
28 | QVQLVESGGGLVQAGGSLRLSCAASGRTFIINTMGWYRQAPGKERELVAAISKNGATTNYADSVKGRFTISSDNAKNSVYLQMNSLKPEDTAVYYCNARYSGYLRLDYWGQGTQVTVSS | low polyreactivity
29 | QVQLVESGGGLVQAGGSLRLSCAASGRTFILNAMGWYRQAPGKERELVAAISWSGGSTYYADSVKGRFTISRDNAKNTVYLQMNCLKPEDTAVYYCAKRYVDPLGSGTHGSWGQGTQVTVSS | low polyreactivity
30 | QVQLVESGGGLVQAGGSLRLSCAASGRTFIPYAMGWYRQAPGKERELVAAITSSGGRTYYADSVKGRFTISRDNAKNTVYLQMNSLKPEDTAVYYCNKYARGYDMDYWGQGTQVTVSS | high polyreactivity
